# Measurements from US20030216297A1, “Pharmaceutical composition” (SANKYO COMPANY, LIMITED, priority 2002, published 2003).
# Tested on: not listed separately
# Experiment: Degree of adsorption to a heparin cross-linked column
# Assay type: physicochemical
# Conditions: applied and washed with 0.7 M NaCl, eluted with 2 M NaCl in 10 mM sodium phosphate buffer; OCIF by ELISA
# Description: A preferred feature of the complexes used in the present invention that can be used to characterise them is their affinity to heparin. Heparin is a polysaccharide comprising D-glucosamine, D-glucuronic acid and D-iduronic acid which is partially or fully derivatised with sulfate and acetyl groups. A preferred feature of the complexes employed in the present invention is that the strength of adsorption of said complex of OCIF or an anlogue or variant thereof to heparin is lower than the strength of adsorption of the free, non-complexed OCIF or analogue or variant thereof. The degree of adsorption can be determined using a column packed with highly cross-linked. linked agarose beads on which has been immobilized heparin (e.g. heparin obtained from bovine intestinal mucosa). Suitable columns of this type include HiTrap heparin HP column, HiPrep 16/10 Heparin and Heparin Sepharose (all obtainable from Amersham Pharmacia). The strength of adsorption (the affinity) of the complex can be determined according to any suitable method that is well known to the person skilled in the art for determining the affinity of proteins to polysaccharides. […] Thus, typically the degree of adsorption of the complex to heparin can be determined as follows:
# (a) A column packed with a support such as cross-linked agarose beads on which has been immobilized heparin is equilibrated with a buffer having a relatively low ionic strength (e.g. sodium phosphate buffer containing 0.1-0.8 M sodium chloride).
# (b) The complex of the present invention that is being tested is dissolved in the same low ionic strength buffer as used in (a) and applied to the column and a first eluate is then collected (fraction A).
# (c) The column is then washed further with the same low ionic strength buffer as used in step (a) and a second eluate is collected (fraction B).
# (d) The column is then washed with a buffer having a relatively high ionic strength (e.g. sodium phosphate buffer containing 1.0-2.0 M sodium chloride) and a third eluate is then collected (fraction C).
# (e) The amount of the complex present in each of fractions A, B and C [designated (α), (β) and (γ) respectively] is then determined (e.g. by an immunoassay).
# (f) The degree of adsorption of the complex to heparin is then determined according to the following formula: [formula]
# The degree of adsorption of the complexes of the present invention as measured by the above formula will vary to some extent depending upon the type of heparin column and the conditions under which the determination is carried out.
# A heparin cross-linked column (HiTrap Heparin HP column, Lot. 289212, Amersham Bioscience) was pre-equilibrated with 5 ml of 10 mM sodium phosphate buffer containing 0.7 M sodium chloride. A preparation from Table 1 of Preparation Example 1 was taken and diluted to a final protein concentration of 0.1 mg/ml with 10 mM sodium phosphate buffer containing 0.7 M sodium chloride. 1 ml of the diluted solution thus obtained was applied to said column and 1 ml of a first eluate was collected (fraction A). Next, 5 ml of 10 mM sodium phosphate buffer containing 0.7 M sodium chloride were applied to said column and 5 ml of a second eluate were collected (fraction B). Finally, 4 ml of 10 mM sodium phosphate buffer containing 2M sodium chloride were applied to said column and 4 ml of an eluate were collected (fraction C).
# 100 μL of 0.1 M sodium hydrogen carbonate (pH 9.6), in which was dissolved an anti-human OCIF monoclonal antibody OI-19 (FERM BP-6420) at a concentration of 10 μg per ml, were transferred to each well of a 96-well microtitre plate (Maxisorp: NUNC Co Ltd.). The plate was sealed and then incubated at 4° C. overnight. At the end of this incubation time, the solution in each well was removed by decantation, 300 μL of 50% Block Ace (purchased from Dainippon Pharmaceutical Co., Ltd.) were added to each well, and then the plate was incubated at room temperature for 2 hours. […]
row,Compound,The degree of adsorption of the OCIF/DS complex to a heparin cross-linked column
1,"Prep. 24: OCIF/DS5 complex: DS5 150 mg/ml, OCIF 5 mg/ml, 25 °C, pH 10, 24 h",0.072
2,"Prep. 22: OCIF/DS5 complex: DS5 150 mg/ml, OCIF 5 mg/ml, 7 °C, pH 10.5, 168 h",0.264
3,"Prep. 7: OCIF/DS5 complex: DS5 130 mg/ml, OCIF 6.5 mg/ml, 4 °C, pH 10.5, 144 h",0.183
4,"Prep. 6: OCIF/DS5 complex: DS5 130 mg/ml, OCIF 6.5 mg/ml, 4 °C, pH 10.5, 48 h",0.451
5,"Prep. 27: OCIF/DS5 complex: DS5 150 mg/ml, OCIF 5 mg/ml, 4 °C, pH 10.5, 144 h",0.141
6,"Prep. 25: OCIF/DS5 complex: DS5 130 mg/ml, OCIF 6.5 mg/ml, 4 °C, pH 10.5, 24 h",0.611
7,"Prep. 8: OCIF/DS5 complex: DS5 130 mg/ml, OCIF 6.5 mg/ml, 4 °C, pH 10.5, 288 h",0.153

# Tested on: adjuvant-arthritis Lewis rat
# Experiment: Adjuvant arthritis in Lewis rats, femur bone mineral density: OCIF complex with loxoprofen sodium
# Assay type: in vivo
# Conditions: distal ends of femurs, day 21 after adjuvant; loxoprofen sodium 5 mg/kg p.o. and/or Preparation 11 0.1 mg/kg i.p. daily, days 14 to 20
# Method: This example was carried out according to the method described in C. V. Winder, et al. Arthritis Rheum 12 472 (1957). Heat-killed cells of Mycobacterium butyricum were pulverized in an agate mortar and then suspended in liquid paraffin sterilized with hot air to give a suspension having a cellular concentration of 2 mg/ml. This suspension was then subjected to ultrasonication so as to produce an adjuvant. 50 μl of the obtained adjuvant were injected intradermally at each of two sites in the base of the tail of a Lewis rat (eight-weeks old, female) (200 μg in total per rat), to induce arthritis in said rat. […] As a control, instead of the loxoprofen sodium, OCIF complex Preparation 11 or a combination thereof, only the solvents used for dissolving them were administered to the rat. […] The bone mineral densities of the distal ends of the right-and-left femurs were measured using an X-ray measurement apparatus (Dual energy X-ray absorptiometry DCS-600R, manufactured by Aroka Co., Ltd.), and the average of each of the measured values was calculated, and was defined as the bone mineral density of the individual. In order to evaluate the differences between the averages of the bone mineral densities of each group, significant difference was tested by Student's t-test, and the P value was calculated.
row,Compound,Bone mineral density (average ± standard error)
1,"Prep. 11: OCIF/DS5 complex: DS5 100 mg/ml, OCIF 5 mg/ml, 4 °C, pH 10.5, 18 h",109.6 ± 2.1 mg/cm^2
2,"CC(C(=O)O)c1ccc(CC2CCCC2=O)cc1 (stereo not shown) [Loxoprofen sodium, loxoprofen sodium, reference compound]",106.5 ± 0.8 mg/cm^2

# Tested on: not listed separately
# Experiment: Measurement of isoelectric point by isoelectric electrophoresis gel
# Assay type: physicochemical
# Conditions: IEF PAGE mini gel, pH range 3 to 10, compared with pI markers
# Description: The isoelectric point can be measured using any conventional isoelectric electrophoresis technique well-known to the skilled person in the art. OCIF is a basic protein and the isoelectric point thereof is about pI 9. […] Therefore, it is possible to readily distinguish complexed and uncomplexed OCIF using this technique.
# The purified recombinant dimeric human OCIF, prepared as described in Preparation Example 1(a) above and the complex of OCIF and dextran sulfate prepared in Preparation Example 1(b) above which is designated Preparation Number 22 in Table 1 were applied separately to an isoelectric electrophoresis gel IEF PAGE mini (pH range of 3 to 10, manufactured by Iwaki Glass), using an IEF pH 3-7 buffer kit (Technical Frontier Co.) and a voltage was applied to the gel according to the following regime: 100 V for 1 hour, followed by 200 V for 1 hour and finally 500 V for 30 minutes. After completion of the electrophoresis, the resultant gel obtained in each case was stained with Coomassie Blue.
# From the electrophoresis gels obtained above, it was determined that the isoelectric point of the dimeric human OCIF was about pI 9, and the isoelectric point of the complex of OCIF and dextran sulfate designated Preparation Number 22 was about pI 6.5 by comparing the band position of OCIF and that of the OCIF complex with pI markers.
row,Compound,isoelectric point (pI)
1,"Prep. 22: OCIF/DS5 complex: DS5 150 mg/ml, OCIF 5 mg/ml, 7 °C, pH 10.5, 168 h",~6.5
2,"OCIF: recombinant dimeric human osteoclastogenesis inhibitory factor, molecular weight about 120000, non-complexed",~9

# Tested on: adjuvant-arthritis Lewis rat
# Experiment: Adjuvant arthritis in Lewis rats, femur bone mineral density: OCIF complex with celecoxib
# Assay type: in vivo
# Conditions: distal ends of femurs, day 21 after adjuvant; celecoxib 1 mg/kg p.o. and/or Preparation 22 3.5 mg/kg i.p. daily, days 14 to 20
# Method: Arthritis was induced in test groups of Lewis rats (eight-weeks old, female) according to the same procedure described in Example 2 above.
# From the 14th to 20th days after injection of the adjuvant, celecoxib [Thomas D, P., et al., J. Med. Chem., 40, 1347-1365 (1997); WO-A-95/15316] suspended in a 0.5% tragacanth aqueous solution (manufactured by Nihon Funmatsu Yakuhin Co., Ltd.) at a concentration of 0.2 mg/ml was orally administered to each rat of one test group at a rate of 5 ml/kg each day so that the dose of […] administered was 1 mg/kg body weight. […]
# Each rat was dissected on the 21 st day after injection of the adjuvant, and the right-and-left femurs were extracted. The bone mineral densities of the distal ends of the right-and-left femurs were measured using an X-ray measurement apparatus (Dual energy X-ray absorptiometry DCS-600R, manufactured by Aroka Co., Ltd.), and the average of each of the measured values was calculated, and was defined as the bone mineral density of the individual.
# In order to evaluate the differences between the averages of the bone mineral densities of each group, significant difference was tested by Student's t-test, and the P value was calculated.
row,Compound,Bone mineral density (average ± standard error)
1,"Cc1ccc(-c2cc(C(F)(F)F)nn2-c2ccc(S(N)(=O)=O)cc2)cc1 [Celecoxib, celecoxib, reference compound]",103.0 ± 1.8 mg/cm^2
2,"Prep. 22: OCIF/DS5 complex: DS5 150 mg/ml, OCIF 5 mg/ml, 7 °C, pH 10.5, 168 h",104.2 ± 2.1 mg/cm^2
